The target in series [1] is AcrIF24 Y128K/Y217W double mutant. The series can be described thus: SEC-MALS. The note with it: parent: 55.76.
In series [2] the target is P. aeruginosa type I-F Cascade complex (Cas5f1, Cas6f, six copies of Cas7f1, Cas8f1 and a 60 nt crRNA) (UniProt Q02MM2). The series can be described thus: SEC followed by SDS-PAGE, band intensity quantified. The settings on record: parent: est. 100; read off a plot.
The target of series [3] is AcrIF24 T129W. Put plainly: SEC-MALS. The settings on record: parent: 55.76.
The target of series [4] is AcrIF24 R221W. Put plainly: SEC-MALS. The settings on record: parent: 55.76.
In series [5] the target is T1, AcrIF24 wild type (Pseudomonas aeruginosa prophage, UniProt A0AA82WNY5 1-228).
T1 sequence: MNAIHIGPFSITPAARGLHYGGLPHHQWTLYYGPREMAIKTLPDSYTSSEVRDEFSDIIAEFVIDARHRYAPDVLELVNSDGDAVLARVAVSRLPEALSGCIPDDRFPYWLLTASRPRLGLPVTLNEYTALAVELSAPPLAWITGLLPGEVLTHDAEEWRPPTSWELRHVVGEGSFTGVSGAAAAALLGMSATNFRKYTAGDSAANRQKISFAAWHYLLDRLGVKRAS
Put plainly: EMSA; concentration-dependent; EMSA-P: 10 mM HEPES pH 7.5, 1 mM MgCl2, 20 mM KCl, 1 mM TCEP, 5% glycerol, 30 min on ice; 10% native 0.5x TBE gel, SYBR Gold; Cascade EMSA buffer not in material. The settings on record: protein: recombinant; chain copies: 2; label: none (SYBR Gold stain); blunt.

Series [6] concerns the target T1, AcrIF24 wild type. Put plainly: EMSA; EMSA-P: 10 mM HEPES pH 7.5, 1 mM MgCl2, 20 mM KCl, 1 mM TCEP, 5% glycerol, 30 min on ice; 10% native 0.5x TBE gel, SYBR Gold; Cascade EMSA buffer not in material. The note with it: protein: recombinant, chain copies: 2, label: none (SYBR Gold stain).
Series [7] deals with the molecule itself. Put plainly: SEC-MALS; Superdex 200 Increase 10/300 GL, SEC buffer (20 mM Tris-HCl pH 8.0, 150 mM NaCl), 0.4 ml/min, 20°C; DAWN-TREOS detector.

Substitutions are numbered along the chain they refer to.

As for “AcrIF24 (wildtype, full length, residues 1-228) Y128K; Y217W”, the other: MW (kDa) by SEC-MALS in series [1] came to 39.6 kDa.
As for “AcrIF24 (wildtype, full length, residues 1-228) D105K”, the percent of parent in series [2] came to 98%.
The same measure, in the same setting: the result for “AcrIF24 (wildtype, full length, residues 1-228) W110K” reads 11%.
With “AcrIF24 (wildtype, full length, residues 1-228) T129W”, the other: MW (kDa) by SEC-MALS in series [3] stood at 53.9 kDa.
Turning to “AcrIF24 (wildtype, full length, residues 1-228) R221W”, in series [4], the other: MW (kDa) by SEC-MALS is 52.4 kDa.
“AcrIF24 (wildtype, full length, residues 1-228) G189K”: in series [2], the percent of parent worked out at 88%.
On the same count and under the same terms, the value for “AcrIF24 (wildtype, full length, residues 1-228) G22Y” was 98%.

B1: IR-L (dsDNA)
DNA 1: CAGAATATCATTGCATAGCTCGATTCGAGCTAATATAGTAATACCAACAGCGCGGCACACCGCCAGCACTGAACCT
DNA 2: AGGTTCAGTGCTGGCGGTGTGCCGCGCTGTTGGTATTACTATATTAGCTCGAATCGAGCTATGCAATGATATTCTG
In the case of B1, the binding result in series [5] was “binds”.

B2: IR-L half-site mutant (dsDNA)
DNA 1: B1 DNA 1 with T16G, A17C, G18A, C19T, T20G, C21A, G22T, A23C
DNA 2: B1 DNA 2 with T54G, C55A, G56T, A57C, G58A, C59T, T60G, A61C
For B2, the binding result in series [6] was “no binding”.

B3: AcrIF24 (wildtype, full length, residues 1-228) (natural protein)
chain: T1 sequence
In the case of B3, the “stoichiometry N” value in series [7] was 2.

B4: IR-S half-site mutant (dsDNA)
DNA 1: GCATGATCTTCGAGCTA
DNA 2: TAGCTCGAAGATCATGC
B4: in series [6], the binding result was “no binding”.

B5: IR-S (dsDNA)
DNA 1: TAGCTCGATTCGAGCTA
DNA 2: TAGCTCGAATCGAGCTA
Take B5: in series [6] (blunt), the binding result is reported as “binds”.

These data come from paper PMC9638941, “Molecular basis of dual anti-CRISPR and auto-regulatory functions of AcrIF24” (Nucleic Acids Research, 2022).
